Assay results as given in patent US20120315270A1.

Tests used:
[1] = target: RSV F glycoprotein on GFP-expressing RSV (respiratory syncytial virus) (UniProt P03420)
[2] = target: RSV F0 Fd (respiratory syncytial virus, strain A2) (UniProt P03420); assay: densitometry of SDS-PAGE of the gel filtration complex peak

With SYNAGIS® IgG (palivizumab) (antibody) as the substance, how does the EC50 (read off the curve), neutralization of GFP-expressing RSV on HEp-2 cells, flow cytometry [1] read?
The EC50 (read off the curve), neutralization of GFP-expressing RSV on HEp-2 cells, flow cytometry was 0.5 nM.

With palivizumab Fab as the substance, how does the Fabs per trimer (Fabs per trimer) [2] read?
Its Fabs per trimer (Fabs per trimer) is 2.97.
